Measurements taken from PMC8602451.

What was measured:
Experiment in all cases: TurboID proximity labelling, streptavidin pull-down, LC-MS
Details in all cases: U2OS stable cell lines; 50 μM biotin for 2 h; read off a plot
[1] = target: EXOSC9
[2] = target: TRIM33 (UniProt Q9UPN9)
[3] = target: IRF2BP2 (UniProt Q7Z5L9)
[4] = target: TRIM24 (UniProt O15164)
[5] = target: PIAS2 (UniProt O75928)
[6] = target: DAXX
[7] = target: ZNF280A
[8] = target: XAB2 (UniProt Q9HCS7)
[9] = target: RBM22
[10] = target: PIAS4 (UniProt Q8N2W9)
UniProt Q8N2W9, sequence (Q8N2W9 whole entry): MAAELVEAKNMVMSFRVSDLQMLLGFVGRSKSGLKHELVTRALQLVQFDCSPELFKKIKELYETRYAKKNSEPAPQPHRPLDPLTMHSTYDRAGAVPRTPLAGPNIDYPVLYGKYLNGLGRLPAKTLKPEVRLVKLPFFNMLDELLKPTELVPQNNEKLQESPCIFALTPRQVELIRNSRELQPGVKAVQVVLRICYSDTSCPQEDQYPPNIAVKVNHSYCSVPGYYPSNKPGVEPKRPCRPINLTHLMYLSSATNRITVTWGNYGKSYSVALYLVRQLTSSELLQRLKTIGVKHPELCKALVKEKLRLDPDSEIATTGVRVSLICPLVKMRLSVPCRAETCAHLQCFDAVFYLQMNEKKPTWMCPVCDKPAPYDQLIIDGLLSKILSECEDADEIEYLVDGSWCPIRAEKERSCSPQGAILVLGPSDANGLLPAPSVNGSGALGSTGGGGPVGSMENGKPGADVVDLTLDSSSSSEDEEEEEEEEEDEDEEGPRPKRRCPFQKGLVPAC

[11] = target: ZNF280B (UniProt Q86YH2)
[12] = target: PIAS1 (UniProt O75925)
[13] = target: FUS
[14] = target: RAD54L2
[15] = target: HSPA8
[16] = target: PIAS3 (UniProt Q9Y6X2)
UniProt Q9Y6X2, sequence (Q9Y6X2 whole entry): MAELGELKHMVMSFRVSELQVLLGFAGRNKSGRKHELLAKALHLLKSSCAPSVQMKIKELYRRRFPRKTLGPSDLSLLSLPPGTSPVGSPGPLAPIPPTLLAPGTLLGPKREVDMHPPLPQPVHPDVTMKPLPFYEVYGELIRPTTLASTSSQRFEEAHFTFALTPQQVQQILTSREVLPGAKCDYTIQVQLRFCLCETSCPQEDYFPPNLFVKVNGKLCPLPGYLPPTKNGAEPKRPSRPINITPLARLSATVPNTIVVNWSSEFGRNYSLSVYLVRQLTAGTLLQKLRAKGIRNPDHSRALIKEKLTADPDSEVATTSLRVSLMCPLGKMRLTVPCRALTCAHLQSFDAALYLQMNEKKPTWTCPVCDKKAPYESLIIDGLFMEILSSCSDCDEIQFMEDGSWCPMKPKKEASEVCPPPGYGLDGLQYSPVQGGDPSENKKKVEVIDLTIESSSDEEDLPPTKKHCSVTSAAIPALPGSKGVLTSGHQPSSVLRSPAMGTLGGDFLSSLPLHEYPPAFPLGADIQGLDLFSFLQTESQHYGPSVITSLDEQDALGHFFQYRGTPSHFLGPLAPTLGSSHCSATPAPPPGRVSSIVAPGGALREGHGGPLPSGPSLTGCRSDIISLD

[17] = target: GATAD2B (UniProt Q8WXI9)
UniProt Q8WXI9, sequence (Q8WXI9 whole entry): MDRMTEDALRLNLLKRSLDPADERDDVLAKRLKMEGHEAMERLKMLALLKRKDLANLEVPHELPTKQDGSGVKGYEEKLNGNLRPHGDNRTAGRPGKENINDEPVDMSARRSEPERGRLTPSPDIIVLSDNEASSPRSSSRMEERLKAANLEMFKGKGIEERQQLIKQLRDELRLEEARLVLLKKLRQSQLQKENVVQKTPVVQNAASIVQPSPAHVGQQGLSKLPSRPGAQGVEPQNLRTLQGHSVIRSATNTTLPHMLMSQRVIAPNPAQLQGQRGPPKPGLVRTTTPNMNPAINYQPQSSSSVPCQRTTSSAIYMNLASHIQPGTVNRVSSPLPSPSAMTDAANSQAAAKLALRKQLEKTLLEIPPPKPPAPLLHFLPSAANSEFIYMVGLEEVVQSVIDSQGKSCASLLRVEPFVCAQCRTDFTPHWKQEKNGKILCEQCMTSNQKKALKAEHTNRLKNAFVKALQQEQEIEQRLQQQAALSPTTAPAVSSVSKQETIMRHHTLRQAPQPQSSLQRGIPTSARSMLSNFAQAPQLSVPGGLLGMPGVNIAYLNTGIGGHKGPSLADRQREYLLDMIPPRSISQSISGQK

[18] = target: SNW1 (UniProt Q13573)
[19] = target: SIMC1

UniProt Q7Z5L9, sequence (Q7Z5L9 whole entry): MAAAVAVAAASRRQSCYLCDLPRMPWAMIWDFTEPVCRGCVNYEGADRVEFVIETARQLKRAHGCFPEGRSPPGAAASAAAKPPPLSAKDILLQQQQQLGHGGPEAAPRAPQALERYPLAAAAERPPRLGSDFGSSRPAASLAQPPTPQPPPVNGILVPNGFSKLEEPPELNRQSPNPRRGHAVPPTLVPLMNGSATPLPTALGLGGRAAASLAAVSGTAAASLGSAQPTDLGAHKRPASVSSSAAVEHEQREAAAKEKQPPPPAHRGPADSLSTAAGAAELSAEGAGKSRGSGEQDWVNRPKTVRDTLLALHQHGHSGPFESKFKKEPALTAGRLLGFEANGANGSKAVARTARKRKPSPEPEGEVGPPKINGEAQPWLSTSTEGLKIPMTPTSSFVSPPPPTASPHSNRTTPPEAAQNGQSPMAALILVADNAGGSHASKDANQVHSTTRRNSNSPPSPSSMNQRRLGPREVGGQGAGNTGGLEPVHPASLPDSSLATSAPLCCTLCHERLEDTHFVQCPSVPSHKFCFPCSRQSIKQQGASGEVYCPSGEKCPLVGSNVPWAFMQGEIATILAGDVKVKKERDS
UniProt Q9HCS7, sequence (Q9HCS7 whole entry): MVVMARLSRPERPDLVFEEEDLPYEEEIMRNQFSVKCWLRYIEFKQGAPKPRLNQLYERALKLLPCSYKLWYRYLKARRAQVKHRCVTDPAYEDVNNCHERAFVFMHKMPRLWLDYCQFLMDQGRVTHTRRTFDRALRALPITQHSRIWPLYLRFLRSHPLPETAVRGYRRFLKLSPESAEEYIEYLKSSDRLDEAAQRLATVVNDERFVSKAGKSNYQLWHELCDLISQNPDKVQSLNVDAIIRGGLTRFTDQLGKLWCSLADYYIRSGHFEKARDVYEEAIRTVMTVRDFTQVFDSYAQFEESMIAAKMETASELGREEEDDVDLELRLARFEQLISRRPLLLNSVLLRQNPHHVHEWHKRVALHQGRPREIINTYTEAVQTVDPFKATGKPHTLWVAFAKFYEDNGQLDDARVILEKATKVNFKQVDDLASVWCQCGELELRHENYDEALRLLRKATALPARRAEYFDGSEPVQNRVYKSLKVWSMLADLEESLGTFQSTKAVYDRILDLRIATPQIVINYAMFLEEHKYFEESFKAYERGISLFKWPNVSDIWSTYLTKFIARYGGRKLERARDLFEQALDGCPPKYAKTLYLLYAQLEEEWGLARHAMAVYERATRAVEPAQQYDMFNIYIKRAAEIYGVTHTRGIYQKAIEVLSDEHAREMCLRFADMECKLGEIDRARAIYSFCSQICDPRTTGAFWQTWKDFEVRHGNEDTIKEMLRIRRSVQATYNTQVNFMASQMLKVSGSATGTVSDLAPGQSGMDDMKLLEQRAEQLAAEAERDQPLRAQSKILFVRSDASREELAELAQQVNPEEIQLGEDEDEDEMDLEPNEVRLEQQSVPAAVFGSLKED
UniProt O75928, sequence (O75928 whole entry): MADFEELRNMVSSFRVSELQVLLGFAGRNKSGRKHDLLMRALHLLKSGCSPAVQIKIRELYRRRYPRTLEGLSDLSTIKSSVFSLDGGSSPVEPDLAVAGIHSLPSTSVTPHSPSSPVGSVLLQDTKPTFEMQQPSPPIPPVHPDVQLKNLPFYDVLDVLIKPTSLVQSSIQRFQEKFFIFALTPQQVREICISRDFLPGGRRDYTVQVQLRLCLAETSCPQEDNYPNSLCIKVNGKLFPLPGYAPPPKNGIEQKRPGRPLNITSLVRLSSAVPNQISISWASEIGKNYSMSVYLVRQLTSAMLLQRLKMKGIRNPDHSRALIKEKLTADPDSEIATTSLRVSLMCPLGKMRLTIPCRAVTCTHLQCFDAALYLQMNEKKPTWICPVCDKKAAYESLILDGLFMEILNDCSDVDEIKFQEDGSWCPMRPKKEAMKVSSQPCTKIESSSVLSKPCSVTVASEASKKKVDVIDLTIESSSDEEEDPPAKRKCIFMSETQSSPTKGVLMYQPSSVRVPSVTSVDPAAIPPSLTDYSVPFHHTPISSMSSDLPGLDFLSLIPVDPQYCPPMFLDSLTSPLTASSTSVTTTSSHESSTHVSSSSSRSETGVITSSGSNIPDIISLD
UniProt O15164, sequence (O15164 whole entry): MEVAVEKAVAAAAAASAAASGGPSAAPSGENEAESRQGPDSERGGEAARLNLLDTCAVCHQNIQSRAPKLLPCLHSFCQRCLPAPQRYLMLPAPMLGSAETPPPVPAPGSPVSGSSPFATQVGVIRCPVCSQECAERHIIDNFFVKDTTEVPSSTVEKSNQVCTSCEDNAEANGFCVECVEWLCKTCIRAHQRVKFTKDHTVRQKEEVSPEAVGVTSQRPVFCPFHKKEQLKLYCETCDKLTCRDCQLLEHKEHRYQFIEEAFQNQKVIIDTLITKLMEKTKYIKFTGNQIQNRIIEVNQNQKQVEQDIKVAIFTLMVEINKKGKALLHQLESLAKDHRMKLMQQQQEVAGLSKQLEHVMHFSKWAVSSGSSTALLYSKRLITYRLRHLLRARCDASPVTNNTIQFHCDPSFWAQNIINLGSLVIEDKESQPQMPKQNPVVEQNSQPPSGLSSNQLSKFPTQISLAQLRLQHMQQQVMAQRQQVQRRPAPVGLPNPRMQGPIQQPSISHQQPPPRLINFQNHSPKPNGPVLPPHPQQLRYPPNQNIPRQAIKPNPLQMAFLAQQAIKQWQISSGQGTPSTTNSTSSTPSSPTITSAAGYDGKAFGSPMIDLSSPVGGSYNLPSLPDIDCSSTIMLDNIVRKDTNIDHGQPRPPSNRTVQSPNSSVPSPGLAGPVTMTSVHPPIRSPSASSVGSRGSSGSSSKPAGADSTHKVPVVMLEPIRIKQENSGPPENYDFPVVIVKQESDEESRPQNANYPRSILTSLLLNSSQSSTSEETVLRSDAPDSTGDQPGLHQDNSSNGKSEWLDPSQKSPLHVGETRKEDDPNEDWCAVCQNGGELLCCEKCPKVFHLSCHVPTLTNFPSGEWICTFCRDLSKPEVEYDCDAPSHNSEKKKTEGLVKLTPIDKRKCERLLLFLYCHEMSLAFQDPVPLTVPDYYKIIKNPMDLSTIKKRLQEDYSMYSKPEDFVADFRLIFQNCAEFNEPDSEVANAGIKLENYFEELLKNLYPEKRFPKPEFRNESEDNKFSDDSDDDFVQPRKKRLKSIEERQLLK

other: Log2 LFQ ratio (TurboID-PML WT / TurboID-PML 3MAS) [1]: 1.8 Log2 LFQ
other: Log2 LFQ ratio (TurboID-PML WT / TurboID-PML 3MAS) [2]: 3.4 Log2 LFQ
other: Log2 LFQ ratio (TurboID-PML WT / TurboID-PML 3MAS) [3]: 0.15 Log2 LFQ
other: Log2 LFQ ratio (TurboID-PML WT / TurboID-PML 3MAS) [4]: 3.4 Log2 LFQ
other: Log2 LFQ ratio (TurboID-PML WT / TurboID-PML 3MAS) [5]: 2.3 Log2 LFQ
other: Log2 LFQ ratio (TurboID-PML WT / TurboID-PML 3MAS) [6]: 2.3 Log2 LFQ
other: Log2 LFQ ratio (TurboID-PML WT / TurboID-PML 3MAS) [7]: 2.9 Log2 LFQ
other: Log2 LFQ ratio (TurboID-PML WT / TurboID-PML 3MAS) [8]: 0.1 Log2 LFQ
other: Log2 LFQ ratio (TurboID-PML WT / TurboID-PML 3MAS) [9]: 3.5 Log2 LFQ
other: Log2 LFQ ratio (TurboID-PML WT / TurboID-PML 3MAS) [10]: 3.7 Log2 LFQ
other: Log2 LFQ ratio (TurboID-PML WT / TurboID-PML 3MAS) [11]: 4.8 Log2 LFQ
other: Log2 LFQ ratio (TurboID-PML WT / TurboID-PML 3MAS) [12]: 3.5 Log2 LFQ
other: Log2 LFQ ratio (TurboID-PML WT / TurboID-PML 3MAS) [13]: 4.5 Log2 LFQ
other: Log2 LFQ ratio (TurboID-PML WT / TurboID-PML 3MAS) [14]: 5.4 Log2 LFQ
other: Log2 LFQ ratio (TurboID-PML WT / TurboID-PML 3MAS) [15]: 0.55 Log2 LFQ
other: Log2 LFQ ratio (TurboID-PML WT / TurboID-PML 3MAS) [16]: 3.6 Log2 LFQ
other: Log2 LFQ ratio (TurboID-PML WT / TurboID-PML 3MAS) [17]: 1.4 Log2 LFQ
other: Log2 LFQ ratio (TurboID-PML WT / TurboID-PML 3MAS) [18]: 0.58 Log2 LFQ
other: Log2 LFQ ratio (TurboID-PML WT / TurboID-PML 3MAS) [19]: 5.9 Log2 LFQ
Substance: FLTbID-PML^WT (from UniProt P29590-12) 3MAS (K65; K160; K490 and SIM; replacement residues not printed)
